Data from article PMC9798103 (The Journal of Cell Biology, 2022).

Target: F-actin (polymerised from Ca2+-ATP G-actin of rabbit skeletal muscle) (rabbit, UniProt P68135 1-377)
Assay: co-sedimentation

Kd: 5.25 µM
B1: N-terminal half of C. elegans RHGF-1 (RHGF-1-N) (domain or fragment)
chain: MRSYEFVTNTPLKLDRHKVYLVDDVAVTRTVPLSQPLSPSTASSSYNMIERCVVVQRQPDGFGLTVNSEFPVYVHTLKQDGAAYCAGVRQGDRIVKVNGMSVSPNNHKEVLQMISNGHNVALTLLGKPPDPISNISFPNQQVEQKIHIADPVLIEASSKSWRQRRNELLGQMVAEERRNVEGLRESSQNGEKIDRALKRIVSLQSQLKQLKPESIISDSQKSLTNLNMDIDSDEEENDVVYLPESQGGPFSNLAELKTHPAHLAVFINYLLLHGNPSSLFFYLITDAYQSAYGTAKEFRRWAFEIFSTFIIPNSPMCIPNSNQSVIQPIDKIMCMTAEHIGDSDTDTLKRIFVPGRQRAVTDINMYLNDFRQKKQLGGQVSESTNQLTHMVRGDMTMEHRVGEQMLFRCLEQCSNSTDFDSCEIRTQSIISSLATVIKIVLGKTSSSSNEKMLDKFPQFMARDKPPGKSRKLPANIKNRIQVKGHSFSINSVNTVHYCYQCRDAIWGMQPWIYFCSNCDVKVHPHCTSALTDACYPVTQSKQKSKSRLSGLIGRSDANDDEDSGSNARHEQPNVKSTSSDSGIGGEHNMDRGLVSRSHSMRYRVATLPQSLSEDKVSIPSSKRDRSVTPSWQRST
